In paper PMC12080921 (2025):

B1: biotinylated bovine FI (enzyme)
chain 1: EDNFRKRGKSKAVKKSEAHHAPEASLSKETEASSEVKPTSTQDTSQKDFVDKKCLTEKHTHLSCNKVFCQPWQKCIDGTCLCKLPYQCPKNGTRVCSTNGKSYSTYCQQKSFECYRPEAKFLKSGACTGGGQFSVSLSNGKQDSEGIVAVKLADLDTKMFVCGDSWSITEANVACIDRGFQLGALDTHRRDPDPNSAECLHVRCRGLETSLAECTFTKGVHNSEGLAGVVCYTESAAPPKKDSFQCVNGKRIPQKKACDGVNDCVDKSDELCCKDCRGEGFLCKSGVCIPKQYKCNGELDCITGEDEVGCEETGHPEIKEAAEMLTADMDAERKFTKSFLPKLSCGVKNNMHI
chain 2: VVGGKPAKMGEFPWQMAIKEGDKIHCGGIYIGGCWILTAAHCVRISRMHRYQIWTSFTDWLRPGFQTVVHSVNRIIIHENYNGTTYQNDIALIEMKKRPNEKECVLSKSIPACVPWSPYLFQPNDKCIVSGWGREKDNQKVYSLRWGEVHLINNCSEFYPGRYFEKEMQCAGTDDGSIDACKGDSGGPLVCQDVNNVTYVWGVVSWGENCGKSEFPGVYTKVANYFDWISQHVGRSLISQHNI
modifications: biotin (EZ-link NHS-biotin; sites not stated) | biotin (EZ-link NHS-biotin; sites not stated)

Key:
biotinylated bovine FI [1] = molecular target: B1; experiment: BLI
biotinylated bovine FI [2] = molecular target: B1; experiment: BLI; kinetic fit
PmSLP-1^95-318 SERp [3] = molecular target: T1, PmSLP-1^95-318 SERp (Pasteurella multocida strain 36950); experiment: BLI; kinetic fit
PmSLP-1^95-318 SERp [4] = molecular target: T1, PmSLP-1^95-318 SERp; experiment: BLI

| Binder | koff (biotinylated bovine FI [1]) | Kd (biotinylated bovine FI [2]) | Kd (PmSLP-1^95-318 SERp [3]) | koff (PmSLP-1^95-318 SERp [4]) |
| --- | --- | --- | --- | --- |
| PmSLP-1^15-318 (domain or fragment) MEKRTVTIPQAQKVAEKPALTIQTVVTSPTTPIKAPSLAPTIDTAPKQNPVPTAQITATLPAEPVKVPVLIPEVNKTLLETSTNPVKDSYNKDAVFTYELIANPDADYSDQKLILKKEISYIKLNLGINQDNKNAPSYIFNLLDDNVYYGFYRDTQDMNRIENKYTYAFKKEAENFDNLQKFNATYEGQFWFSSIDTPNVPTVARAFLTYNNGRVDGEILAKHWNEKLFQITGFDNNPRKVEIFPTVEYLPNSGTRLTKGATSPHRFQMDLHFINSTNGEKNKYLVGQGSTEQYWGVLGMEKKQELALVPR | 0.0059 s⁻¹ | 18 nM |  |  |
| B1 |  |  | 30 nM | 0.008 s⁻¹ |
